Results taken from US20240327500A1.

Target: HBV virions (Genotype D) (Hepatitis B virus genotype D)
Assay: cell-based or functional assay

neutralization at 0.03 µg/ml, in-vitro assay: 29%
Substance: HBC34 (antibody)
